Tests used:
recombinant human IGF-1 = biological target: T1, recombinant human IGF-1 (Homo sapiens, UniProt P05019); assay: SPR; Biacore T200, competition in solution: 5 nM hIGF-1 or hIGF-2 incubated 1 h with 0.12-500 nM IGF-TRAP, injected over about 4000 RU MEDI-573 amine-coupled to a CM-5 chip; free ligand read 10 s after end of injection; PBS 0.05% Tween 20, 25 °C; settings: both partners purified
T1 construct: human insulin-like growth factor 1, recombinant; also called rhIGF-1; hIGF-1; source: bought: Sigma-Aldrich
T1 sequence (P05019 49-118): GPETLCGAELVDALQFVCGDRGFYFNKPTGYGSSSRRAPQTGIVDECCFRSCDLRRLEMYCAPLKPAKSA

recombinant human IGF-2 = biological target: T2, recombinant human IGF-2 (human); assay: as above; settings: both partners purified
T2 construct: human insulin-like growth factor 2, recombinant; also called rhIGF-2; hIGF-2; source: bought: Sigma-Aldrich

binding result (recombinant human IGF-1): binds
binding result (recombinant human IGF-2): binds
B1: dusigitumab (MEDI-573) (antibody, V domains shown)
VH: QVQLVQSGAEVKKPGASVKVSCKASGYTFTSYDINWVRQATGQGLEWMGWMNPNSGNTGYAQKFQGRVTMTRNTSISTAYMELSSLRSEDTAVYYCARDPYYYYYGMDVWGQGTTVTVSS
VL: QSVLTQPPSVSAAPGQKVTISCSGSSSNIENNHVSWYQQLPGTAPKLLIYDNNKRPSGIPDRFSGSKSGTSATLGITGLQTGDEADYYCETWDTSLSAGRVFGGGTKLTVL

From article PMC6255772, “Enhanced anti-metastatic bioactivity of an IGF-TRAP re-engineered to improve physicochemical properties” (Scientific Reports, 2018)
